Experimental data from patent publication US20240043540A1 (Innovent, published 2024).

Columns and labels:
[1] = target: T1, cynomolgus monkey B7H3 expressed on CHO cells (CHO-cynoB7H3) (cynomolgus monkey, UniProt Q7TPB4 26-316 (rat entry)); assay: flow cytometry, hybridoma supernatant on CHO-cynoB7H3 cells
T1 chain: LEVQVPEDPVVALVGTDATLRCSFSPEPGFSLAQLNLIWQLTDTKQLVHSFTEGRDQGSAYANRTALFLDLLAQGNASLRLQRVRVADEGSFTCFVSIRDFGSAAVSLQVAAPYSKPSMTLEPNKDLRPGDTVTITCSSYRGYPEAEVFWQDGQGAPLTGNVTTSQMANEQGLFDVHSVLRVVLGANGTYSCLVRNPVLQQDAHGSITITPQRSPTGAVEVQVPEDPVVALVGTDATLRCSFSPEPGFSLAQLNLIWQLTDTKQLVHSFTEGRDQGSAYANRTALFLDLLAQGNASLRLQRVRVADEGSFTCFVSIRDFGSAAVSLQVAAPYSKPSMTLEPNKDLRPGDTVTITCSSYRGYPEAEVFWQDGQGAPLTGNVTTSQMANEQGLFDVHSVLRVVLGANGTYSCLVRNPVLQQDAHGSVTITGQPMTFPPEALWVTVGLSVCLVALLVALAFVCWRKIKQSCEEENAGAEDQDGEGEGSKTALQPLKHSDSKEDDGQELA

[2] = target: T2, recombinant human 4Ig-B7H3 protein (human, UniProt Q5ZPR3 29-461); assay: bio-layer interferometry (ForteBio), hybridoma antibody
T2 construct: also called human B7H3 protein; SINO BIOLOGICAL Catalog No. 11188-H08H
T2 sequence: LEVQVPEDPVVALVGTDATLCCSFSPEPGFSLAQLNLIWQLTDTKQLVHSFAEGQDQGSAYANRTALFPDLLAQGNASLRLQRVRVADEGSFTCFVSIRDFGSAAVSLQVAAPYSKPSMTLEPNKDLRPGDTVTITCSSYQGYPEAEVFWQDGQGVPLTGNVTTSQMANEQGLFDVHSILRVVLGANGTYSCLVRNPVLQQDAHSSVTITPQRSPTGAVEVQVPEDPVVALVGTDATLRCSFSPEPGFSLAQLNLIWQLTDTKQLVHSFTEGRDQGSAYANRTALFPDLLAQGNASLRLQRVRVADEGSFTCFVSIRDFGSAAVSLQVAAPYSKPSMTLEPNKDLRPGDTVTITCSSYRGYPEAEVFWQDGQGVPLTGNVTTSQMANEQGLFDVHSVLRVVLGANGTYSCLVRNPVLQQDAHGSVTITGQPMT

[3] = target: T3, recombinant cynomolgus monkey B7H3 protein (cynomolgus monkey, UniProt Q7TPB4 26-248 (rat entry)); assay: as above
T3 construct: also called SINO BIOLOGICAL Catalog No. 90806-C02H-50
T3 chain: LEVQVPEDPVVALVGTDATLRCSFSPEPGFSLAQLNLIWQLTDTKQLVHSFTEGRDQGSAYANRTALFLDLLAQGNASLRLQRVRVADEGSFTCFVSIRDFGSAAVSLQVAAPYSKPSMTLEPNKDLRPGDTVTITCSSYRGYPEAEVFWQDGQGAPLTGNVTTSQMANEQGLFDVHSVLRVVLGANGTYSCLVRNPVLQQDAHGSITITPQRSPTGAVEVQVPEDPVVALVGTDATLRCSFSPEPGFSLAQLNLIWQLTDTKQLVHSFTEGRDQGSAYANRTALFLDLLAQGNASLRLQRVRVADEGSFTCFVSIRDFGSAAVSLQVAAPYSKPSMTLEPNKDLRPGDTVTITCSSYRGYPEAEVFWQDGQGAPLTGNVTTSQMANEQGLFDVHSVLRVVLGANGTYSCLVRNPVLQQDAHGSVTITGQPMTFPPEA

B1: 20G5 (hybridoma clone antibody) (antibody, V domains shown)
VH: EVQLQQSVPELVKPGASVKISCKTSGYTFTEYIMHWVKQSHGKNLEWIGGINPNNGGTTYNQKFKDKATLTVDKSSSTAYMELHNLTSEDSAVYYCTRRTPPWHFAVWGAGTSLTVSS
VL: DIVLTQSPTIMSASPGEKVTMTCSASSSVSYIHWYQQKSGTSPKRWIFDTSRLASGVPARFSGSGSGTSYSLTISSMEAEDAATYYCQQWSSAPLTFGTGTTLELK
binding result [1]: binds
Kd [2]: 0.362 nM
Kd [3]: 0.59 nM
